Measurements: patent US20240132603A1 (HARBOUR BIOMED US, published 2024)

How the values were obtained:
[1] = target: T1, cynomolgus monkey CCR8 (cynomolgus monkey, UniProt G7NYJ2 1-355); experiment: FACS, CHO-K1-CynoCCR8 cells
T1 construct: whole, on cells; also called CynoCCR8
Method in brief: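 Anti-CCR8 antibodies titrated in 5-fold steps from 200 nM onto 1E6 cells/mL CHO-K1-CynoCCR8 in DPBS/2% FBS, 1 h at 4 °C. Bound antibody detected with 1:1000 secondary antibody, 40 min at 4 °C, then flow cytometry.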

[2] = target: T2, human CCR8 (human, UniProt P51685 1-355); experiment: KinExA, cell line overexpressing human CCR8; human CCR8 cell line
T2 construct: whole, on cells; construct used for the overexpressing cell lines is not described; also called hCCR8
T2 sequence (P51685 whole entry): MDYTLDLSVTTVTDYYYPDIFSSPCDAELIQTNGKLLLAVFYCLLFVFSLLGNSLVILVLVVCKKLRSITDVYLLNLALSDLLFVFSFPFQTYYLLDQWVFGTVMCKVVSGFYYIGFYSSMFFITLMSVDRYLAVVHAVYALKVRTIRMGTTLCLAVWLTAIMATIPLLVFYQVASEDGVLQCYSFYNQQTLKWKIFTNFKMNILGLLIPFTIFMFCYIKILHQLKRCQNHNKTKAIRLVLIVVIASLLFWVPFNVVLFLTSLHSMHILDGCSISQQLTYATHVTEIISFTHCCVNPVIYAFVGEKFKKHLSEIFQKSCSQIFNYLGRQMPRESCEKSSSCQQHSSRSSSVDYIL
Procedure: (§1) To 200 mg of PMMA hard beads was added 30 μg of Goat Anti-Human IgG Fc antibody, and the mixture was supplemented with a coating solution to 1.0 mL, with a buffer composition of 1×PBS, pH7.4, to ensure that the beads were completely suspended in the solution. After being spun at room temperature for 2 h, the beads were either allowed to settle naturally or centrifuged briefly at low speed, and the supernatant was removed. 1 mL of blocking buffer (1×PBS, pH7.4, containing 10 mg/mL BSA) was added to ensure that the beads were resuspended in the blocking solution, and the beads were spun at room temperature for 1 h. An appropriate concentration of PR005565, PR006155 or PR006166 was used as the 100% signal value, and PBS blank was used as the background value. The net signal values were detected using 0.5 μg/mL Alexa Fluor® 647 Goat Anti-Human IgG. The cell line overexpressing human or monkey CCR8 was collected by centrifugation at 1500 g for 5 min, washed 2 times with 2 PBS and centrifuged at 350 g. The cells were collected in a 1.5 mL centrifuge tube. 10 mL of 0.2 nM PR005565, PR006155 or PR006166 solution was prepared. The total cells were supplemented with 0.2 nM PR005565, PR006155 or PR006166 solution to 0.82 mL, and diluted in a 2-fold gradient with 0.2 nM PR005565, PR006155 or PR006166 as a buffer. […]

[3] = target: T2, human CCR8; experiment: FACS, CHO-K1-hCCR8 cells
Method in brief: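 Cells are harvested with pancreatin and brought to 1E6 cells/mL. They then receive anti-CCR8 antibody (5-fold series, top 200 nM, 1 h, 4 °C), washes, secondary antibody (1:1000, 40 min, 4 °C) and FACS analysis.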

[4] = target: T3, MMP16 (UniProt P51512 120-607); experiment: flow cytometry, HEK293-MMP16 cells
T3 construct: whole, on cells; also called HEK293-MMP16
T3 sequence (P51512 120-607): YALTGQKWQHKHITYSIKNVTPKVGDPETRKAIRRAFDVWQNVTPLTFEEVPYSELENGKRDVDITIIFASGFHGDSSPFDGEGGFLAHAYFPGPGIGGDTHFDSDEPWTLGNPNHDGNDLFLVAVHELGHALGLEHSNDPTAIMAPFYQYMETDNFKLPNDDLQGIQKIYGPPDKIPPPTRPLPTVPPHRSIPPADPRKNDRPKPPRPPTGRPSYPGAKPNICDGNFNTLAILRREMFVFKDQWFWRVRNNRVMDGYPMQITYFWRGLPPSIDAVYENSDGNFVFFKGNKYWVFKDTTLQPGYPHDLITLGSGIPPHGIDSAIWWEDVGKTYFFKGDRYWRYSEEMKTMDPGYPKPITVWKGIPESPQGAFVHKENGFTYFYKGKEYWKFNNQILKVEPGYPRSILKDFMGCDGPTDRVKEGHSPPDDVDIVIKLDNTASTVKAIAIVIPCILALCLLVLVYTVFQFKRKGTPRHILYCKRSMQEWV

[5] = target: T4, CD40LG (UniProt P29965 1-261); experiment: flow cytometry, HEK293-CD40LG cells
T4 construct: whole, on cells; also called HEK293-CD40LG
T4 sequence (looked up): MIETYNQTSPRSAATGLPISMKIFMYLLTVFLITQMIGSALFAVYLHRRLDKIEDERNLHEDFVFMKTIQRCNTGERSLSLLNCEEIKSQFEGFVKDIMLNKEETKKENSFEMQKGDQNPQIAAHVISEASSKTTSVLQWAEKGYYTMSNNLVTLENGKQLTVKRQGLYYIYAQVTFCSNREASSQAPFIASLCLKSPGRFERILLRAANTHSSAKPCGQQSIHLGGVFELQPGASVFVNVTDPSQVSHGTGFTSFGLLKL

[6] = target: T5, TSPAN4-FLAG (UniProt O14817 1-238, limits assumed); experiment: flow cytometry, HEK293-TSPAN4 cells
T5 construct: whole, on cells; order of protein and tag unknown; also called HEK293-TSPAN4; not shown: FLAG tag
T5 sequence (looked up): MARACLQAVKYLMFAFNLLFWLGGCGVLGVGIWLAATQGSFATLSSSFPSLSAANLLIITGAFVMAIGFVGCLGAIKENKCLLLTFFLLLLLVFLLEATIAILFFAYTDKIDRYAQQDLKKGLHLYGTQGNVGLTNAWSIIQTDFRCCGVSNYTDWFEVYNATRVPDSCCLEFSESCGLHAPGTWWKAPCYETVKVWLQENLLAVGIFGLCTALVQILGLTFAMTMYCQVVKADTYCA

[7] = target: T3, MMP16; experiment: flow cytometry, transfected HEK293 cells
Description: (§2) After that, HEK293 cells were transfected with commercial MMP16 (protein information can be found under Uniprot P51512), CD40LG (protein information can be found under Uniprot P29965), CD147 (protein information can be found under Uniprot P35612), TSPAN4 (protein information can be found under Uniprot 014817), and TSPAN12 (protein information can be found under Uniprot 095859) plasmids for further verification of the binding of PR005565, PR006275 and PR006276 to these proteins. […] However, the binding values of PR005565, PR006275 and PR006276 to MMP16, CD40LG, CD147, TSPAN4 and TSPAN12 after transfection of HEK293 cells were all consistent with the signal values of HEK293 cells themselves. Thus, PR005565, PR006275 and PR006276 had no non-specific binding to MMP16, CD40LG, CD147, TSPAN4 and TSPAN12 proteins (see Table 50).

[8] = target: T4, CD40LG; experiment: flow cytometry, transfected HEK293 cells
Description: as §2

[9] = target: T5, TSPAN4-FLAG; experiment: flow cytometry, transfected HEK293 cells
Description: as §2

[10] = target: T6, TSPAN12-FLAG (UniProt O95859 1-305); experiment: flow cytometry, transfected HEK293 cells
T6 construct: whole, on cells; order of protein and tag unknown; also called HEK293-TSPAN12; not shown: FLAG tag
T6 sequence (looked up): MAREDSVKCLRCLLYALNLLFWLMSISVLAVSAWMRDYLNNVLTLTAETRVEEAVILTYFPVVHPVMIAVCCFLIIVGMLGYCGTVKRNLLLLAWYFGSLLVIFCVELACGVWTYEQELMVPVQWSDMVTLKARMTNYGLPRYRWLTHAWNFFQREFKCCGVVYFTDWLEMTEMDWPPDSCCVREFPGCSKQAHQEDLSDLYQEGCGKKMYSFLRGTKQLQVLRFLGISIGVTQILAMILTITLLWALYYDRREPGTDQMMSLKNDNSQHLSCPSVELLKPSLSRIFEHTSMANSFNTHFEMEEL
Description: as §2

[11] = target: T6, TSPAN12-FLAG; experiment: flow cytometry, HEK293-TSPAN12 cells
Description: as §2

[12] = target: T7, CD147; experiment: flow cytometry, HEK293-CD147 cells
T7 construct: also called HEK293-CD147

[13] = target: T1, cynomolgus monkey CCR8; experiment: KinExA, cell line overexpressing monkey CCR8; monkey CCR8 cell line
Procedure: as §1

T1 sequence (G7NYJ2 entry or part of it): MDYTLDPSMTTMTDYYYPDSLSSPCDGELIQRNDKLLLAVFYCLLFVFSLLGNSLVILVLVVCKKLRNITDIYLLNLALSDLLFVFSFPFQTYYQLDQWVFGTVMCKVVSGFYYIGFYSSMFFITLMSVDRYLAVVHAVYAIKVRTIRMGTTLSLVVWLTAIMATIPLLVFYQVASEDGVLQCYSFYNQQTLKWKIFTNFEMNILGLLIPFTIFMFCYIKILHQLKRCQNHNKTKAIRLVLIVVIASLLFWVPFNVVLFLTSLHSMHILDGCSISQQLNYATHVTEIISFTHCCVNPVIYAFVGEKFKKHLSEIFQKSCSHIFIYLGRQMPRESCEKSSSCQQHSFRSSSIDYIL

B1: PR006155 (antibody, human IgG1, kappa)
heavy: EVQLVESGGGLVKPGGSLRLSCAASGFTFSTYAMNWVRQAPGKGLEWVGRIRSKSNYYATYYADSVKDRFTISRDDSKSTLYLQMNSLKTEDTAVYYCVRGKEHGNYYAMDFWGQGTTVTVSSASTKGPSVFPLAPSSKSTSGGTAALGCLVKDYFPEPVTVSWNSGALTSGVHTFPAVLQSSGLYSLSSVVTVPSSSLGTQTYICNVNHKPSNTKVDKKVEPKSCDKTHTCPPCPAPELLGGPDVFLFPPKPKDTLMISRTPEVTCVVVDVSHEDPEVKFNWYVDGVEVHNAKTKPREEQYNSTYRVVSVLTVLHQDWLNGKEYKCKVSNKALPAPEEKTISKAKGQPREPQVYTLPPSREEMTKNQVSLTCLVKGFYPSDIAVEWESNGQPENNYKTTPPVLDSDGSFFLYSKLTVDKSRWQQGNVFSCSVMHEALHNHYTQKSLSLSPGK
light: DIVMTQSPLSLPVTLGQPASISCRSSKSLLHSNAKIYLYWFQQRPGQSPRLLIYRMSNLASGVPDRFSGSGSGTDFTLKISRVEAEDVGVYYCMQHLEYPLTFGQGTKLEIKRTVAAPSVFIFPPSDEQLKSGTASVVCLLNNFYPREAKVQWKVDNALQSGNSQESVTEQDSKDSTYSLSSTLTLSKADYEKHKVYACEVTHQGLSSPVTKSFNRGEC
With B1 the EC50 [1] was 0.39 nM, the Kd [2] was 0.0214 nM and the EC50 [3] was 0.38 nM.

B2: PR006276 (antibody, human IgG1, kappa)
heavy: not shown
light: B1 light
B2 gave an MFI [4] of 160, an MFI [5] of 152 and an MFI [6] of 203. The EC50 [1] was 0.51 nM, the binding result [7] was “no binding” and the binding result [8] was “no binding”. For the same binder, the binding result [9] was “no binding”, the binding result [10] was “no binding” and the MFI [11] was 185. For the same binder, the MFI [12] was 152 and the EC50 [3] was 0.4 nM.

B3: PR006166 (antibody, human IgG1, kappa)
heavy: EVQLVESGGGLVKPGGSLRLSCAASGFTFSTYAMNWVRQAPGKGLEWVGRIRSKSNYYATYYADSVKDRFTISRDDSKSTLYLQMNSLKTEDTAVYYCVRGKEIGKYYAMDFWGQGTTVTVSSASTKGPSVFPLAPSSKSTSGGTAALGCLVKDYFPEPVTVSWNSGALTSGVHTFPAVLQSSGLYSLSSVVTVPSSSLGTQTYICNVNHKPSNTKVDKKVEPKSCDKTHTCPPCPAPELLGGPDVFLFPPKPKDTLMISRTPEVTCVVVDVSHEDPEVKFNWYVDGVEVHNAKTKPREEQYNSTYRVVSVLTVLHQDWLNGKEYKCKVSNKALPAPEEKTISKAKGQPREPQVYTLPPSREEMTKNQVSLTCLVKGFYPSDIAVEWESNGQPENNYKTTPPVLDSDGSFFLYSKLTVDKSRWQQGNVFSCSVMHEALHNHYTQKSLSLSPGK
light: B1 light
B3 was tested, and the EC50 [1] was 0.44 nM, the Kd [13] was 0.0493 nM and the EC50 [3] was 0.49 nM.

B4: PR006275 (antibody, human IgG1, kappa)
heavy: not shown
light: B1 light
With B4 the MFI [4] was 204, the MFI [5] was 352 and the MFI [6] was 424. The EC50 [1] was 0.47 nM, the binding result [7] was “no binding” and the binding result [8] was “no binding”. The binding result [9] was “no binding”, the binding result [10] was “no binding” and the MFI [11] was 398. The MFI [12] was 362 and the EC50 [3] was 0.38 nM.
